# Data from publication PMC5171940.
# Target: Aβ oligomers: soluble prefibrillar aggregates of biotinylated Aβ(1–42)
# Test: SPR; BIAcore T200, single-cycle kinetics; biotinylated Aβ (11–28 or oligomeric 1–42) captured on streptavidin-coupled CM5 chip (100–200 RU); antibody as analyte 0.8–500 nM in HBS-P pH 7.4, 0.15 M NaCl; one-to-one Langmuir model
substance,measurement,value
"Crenezumab, fully humanized anti-Aβ monoclonal IgG4 (antibody)",Kd,0.4 to 0.6 nM
